Results reported in patent US20240124553A1.

Legend:
Experiment in all cases: flow cytometry, transfected 293T cells
[1] = target: CHIKV E2-E1 envelope glycoproteins (strain S27), E2 mutant I121A (chikungunya virus strain S27) (UniProt Q8JUX5)
[2] = target: CHIKV E2-E1 envelope glycoproteins (strain S27), E2 mutant F100A (chikungunya virus strain S27) (UniProt Q8JUX5)
[3] = target: CHIKV E2-E1 envelope glycoproteins (strain S27), E2 mutant D43A (chikungunya virus strain S27) (UniProt Q8JUX5)
[4] = target: CHIKV E2-E1 envelope glycoproteins (strain S27), E2 mutant P90A (chikungunya virus strain S27) (UniProt Q8JUX5)
[5] = target: CHIKV E2-E1 envelope glycoproteins (strain S27), E2 mutant L52A (chikungunya virus strain S27) (UniProt Q8JUX5)
[6] = target: CHIKV E2-E1 envelope glycoproteins (strain S27), E2 mutant D59A (chikungunya virus strain S27) (UniProt Q8JUX5)
[7] = target: CHIKV E2-E1 envelope glycoproteins (strain S27), E2 mutant L102A (chikungunya virus strain S27) (UniProt Q8JUX5)
[8] = target: CHIKV E2-E1 envelope glycoproteins (strain S27), E2 mutant T65A (chikungunya virus strain S27) (UniProt Q8JUX5)
[9] = target: CHIKV E2-E1 envelope glycoproteins (strain S27), E2 mutant C105A (chikungunya virus strain S27) (UniProt Q8JUX5)
[10] = target: CHIKV E2-E1 envelope glycoproteins (strain S27), E2 mutant T110A (chikungunya virus strain S27) (UniProt Q8JUX5)
[11] = target: CHIKV E2-E1 envelope glycoproteins (strain S27), E2 mutant T126A (chikungunya virus strain S27) (UniProt Q8JUX5)
[12] = target: CHIKV E2-E1 envelope glycoproteins (strain S27), E2 mutant G95A (chikungunya virus strain S27) (UniProt Q8JUX5)
[13] = target: CHIKV E2-E1 envelope glycoproteins (strain S27), E2 mutant L111A (chikungunya virus strain S27) (UniProt Q8JUX5)
[14] = target: CHIKV E2-E1 envelope glycoproteins (strain S27), E2 mutant H123A (chikungunya virus strain S27) (UniProt Q8JUX5)
[15] = target: CHIKV E2-E1 envelope glycoproteins (strain S27), E2 mutant S118A (chikungunya virus strain S27) (UniProt Q8JUX5)
[16] = target: CHIKV E2-E1 envelope glycoproteins (strain S27), E2 mutant F115A (chikungunya virus strain S27) (UniProt Q8JUX5)
[17] = target: CHIKV E2-E1 envelope glycoproteins (strain S27), E2 mutant H99A (chikungunya virus strain S27) (UniProt Q8JUX5)
[18] = target: CHIKV E2-E1 envelope glycoproteins (strain S27), E2 mutant R80A (chikungunya virus strain S27) (UniProt Q8JUX5)
[19] = target: CHIKV E2-E1 envelope glycoproteins (strain S27), E2 mutant I54A (chikungunya virus strain S27) (UniProt Q8JUX5)
[20] = target: CHIKV E2-E1 envelope glycoproteins (strain S27), E2 mutant R38A (chikungunya virus strain S27) (UniProt Q8JUX5)
[21] = target: CHIKV E2-E1 envelope glycoproteins (strain S27), E2 mutant V50A (chikungunya virus strain S27) (UniProt Q8JUX5)
[22] = target: CHIKV E2-E1 envelope glycoproteins (strain S27), E2 mutant N39A (chikungunya virus strain S27) (UniProt Q8JUX5)
[23] = target: CHIKV E2-E1 envelope glycoproteins (strain S27), E2 mutant R68A (chikungunya virus strain S27) (UniProt Q8JUX5)
[24] = target: CHIKV E2-E1 envelope glycoproteins (strain S27), E2 mutant D117A (chikungunya virus strain S27) (UniProt Q8JUX5)
[25] = target: CHIKV E2-E1 envelope glycoproteins (strain S27), E2 mutant L34A (chikungunya virus strain S27) (UniProt Q8JUX5)
[26] = target: CHIKV E2-E1 envelope glycoproteins (strain S27), E2 mutant W64A (chikungunya virus strain S27) (UniProt Q8JUX5)
[27] = target: CHIKV E2-E1 envelope glycoproteins (strain S27), E2 mutant I37A (chikungunya virus strain S27) (UniProt Q8JUX5)
[28] = target: CHIKV E2-E1 envelope glycoproteins (strain S27), E2 mutant C125A (chikungunya virus strain S27) (UniProt Q8JUX5)
[29] = target: CHIKV E2-E1 envelope glycoproteins (strain S27), E2 mutant K120A (chikungunya virus strain S27) (UniProt Q8JUX5)
[30] = target: CHIKV E2-E1 envelope glycoproteins (strain S27), E2 mutant A89S (chikungunya virus strain S27) (UniProt Q8JUX5)
[31] = target: CHIKV E2-E1 envelope glycoproteins (strain S27), E2 mutant C91A (chikungunya virus strain S27) (UniProt Q8JUX5)
[32] = target: CHIKV E2-E1 envelope glycoproteins (strain S27), E2 mutant V85A (chikungunya virus strain S27) (UniProt Q8JUX5)
[33] = target: CHIKV E2-E1 envelope glycoproteins (strain S27), E2 mutant F84A (chikungunya virus strain S27) (UniProt Q8JUX5)

Row | Substance | Binding Reactivity (% WT) [1] | Binding Reactivity (% WT) [2] | Binding Reactivity (% WT) [3] | Binding Reactivity (% WT) [4] | Binding Reactivity (% WT) [5] | Binding Reactivity (% WT) [6] | Binding Reactivity (% WT) [7] | Binding Reactivity (% WT) [8] | Binding Reactivity (% WT) [9] | Binding Reactivity (% WT) [10] | Binding Reactivity (% WT) [11] | Binding Reactivity (% WT) [12] | Binding Reactivity (% WT) [13] | Binding Reactivity (% WT) [14] | Binding Reactivity (% WT) [15] | Binding Reactivity (% WT) [17] | Binding Reactivity (% WT) [18] | Binding Reactivity (% WT) [19] | Binding Reactivity (% WT) [20] | Binding Reactivity (% WT) [21] | other results
1 | CHIKV mAb IM-CKV063 (antibody) | 109 % WT | 33.6 % WT | 8.3 % WT | 95.3 % WT | 107 % WT | 81.1 % WT | 24.1 % WT | 70.1 % WT | 0.4 % WT | 88.1 % WT | 83.4 % WT | 88.9 % WT | 20.3 % WT | 44.2 % WT | 93.1 % WT | 63.8 % WT | 86.3 % WT | 102 % WT | 94.7 % WT | 64.1 % WT | Binding Reactivity (% WT) [16]: 3.6 % WT; Binding Reactivity (% WT) [22]: 120 % WT; Binding Reactivity (% WT) [23]: 67.1 % WT; Binding Reactivity (% WT) [24]: 74.2 % WT; Binding Reactivity (% WT) [25]: 29.4 % WT; Binding Reactivity (% WT) [26]: 69.1 % WT; Binding Reactivity (% WT) [27]: 26 % WT; Binding Reactivity (% WT) [28]: 0.5 % WT; Binding Reactivity (% WT) [29]: 13.1 % WT; Binding Reactivity (% WT) [30]: 84 % WT; Binding Reactivity (% WT) [31]: 1.5 % WT; Binding Reactivity (% WT) [32]: 74.5 % WT; Binding Reactivity (% WT) [33]: 61.7 % WT
2 | CHIKV mAb IM-CKV065 (antibody) | 111 % WT | 15.1 % WT | 3.7 % WT | 108 % WT | 142 % WT | 72.8 % WT | 4.7 % WT | 98.4 % WT | -2.9 % WT | 72.1 % WT | 67.2 % WT | 92.6 % WT | 6.6 % WT | 30.8 % WT | 86 % WT | 27.5 % WT | 125 % WT | 80.8 % WT | 133 % WT | 48.2 % WT | Binding Reactivity (% WT) [16]: -0.2 % WT; Binding Reactivity (% WT) [22]: 120 % WT; Binding Reactivity (% WT) [23]: 88.1 % WT; Binding Reactivity (% WT) [24]: 70.9 % WT; Binding Reactivity (% WT) [25]: 16.3 % WT; Binding Reactivity (% WT) [26]: 86.3 % WT; Binding Reactivity (% WT) [27]: 12.1 % WT; Binding Reactivity (% WT) [28]: -2.9 % WT; Binding Reactivity (% WT) [29]: 0.4 % WT; Binding Reactivity (% WT) [30]: 111 % WT; Binding Reactivity (% WT) [31]: -2 % WT; Binding Reactivity (% WT) [32]: 88.1 % WT; Binding Reactivity (% WT) [33]: 51.6 % WT
3 | Mxra8-Fc (mouse Mxra8 extracellular domain fused to mouse IgG2b Fc) (Fc fusion) | 12.1 % WT | 26.2 % WT | 36.2 % WT | 114 % WT | 86.8 % WT | 78.9 % WT | 22.8 % WT | 68.9 % WT | -0.1 % WT | 99.6 % WT | 76 % WT | 94.6 % WT | 25.7 % WT | 33.6 % WT | 89.6 % WT | 58.1 % WT | 131 % WT | 104 % WT | 90.7 % WT | 67.8 % WT | Binding Reactivity (% WT) [22]: 91.9 % WT; Binding Reactivity (% WT) [23]: 66.1 % WT; Binding Reactivity (% WT) [24]: -0.3 % WT; Binding Reactivity (% WT) [25]: 28.3 % WT; Binding Reactivity (% WT) [26]: 17.7 % WT; Binding Reactivity (% WT) [27]: 36.2 % WT; Binding Reactivity (% WT) [28]: -0.2 % WT; Binding Reactivity (% WT) [29]: 1.8 % WT; Binding Reactivity (% WT) [30]: 102 % WT; Binding Reactivity (% WT) [31]: 1 % WT; Binding Reactivity (% WT) [32]: 84.6 % WT; Binding Reactivity (% WT) [33]: 77.6 % WT
